B1: V-set and transmembrane domain-containing protein 5 (Vstm5): N43,87,101,108A (protein)
parent chain: MRPLRCGERTQGIPLGLLAFWVTAARCLQSQGVSLYIPQSAINATVQQDILLSVDYICHGVPTIEWKYTPNWGVQRIVEWKPGTPANVSQSHRDRVCTFDNGSIQLFNVSVKDSGYYIVTVTEHPGSSQSGTILLRVSEIRYEDLHFVAVFFALLAAVAVVLISLMWVCNQCAYKFQRKRRYKLKESTTEEIEMKEVEC
B2: V-set and transmembrane domain-containing protein 5 (Vstm5): N43A (protein)
parent chain: B1 parent chain
B3: V-set and transmembrane domain-containing protein 5 (Vstm5): N43,87A (protein)
parent chain: B1 parent chain
B4: V-set and transmembrane domain-containing protein 5 (Vstm5): N101A (protein)
parent chain: B1 parent chain
B5: V-set and transmembrane domain-containing protein 5 (Vstm5): N87A (protein)
parent chain: B1 parent chain
B6: V-set and transmembrane domain-containing protein 5 (Vstm5): N87,101,108A (protein)
parent chain: B1 parent chain
B7: V-set and transmembrane domain-containing protein 5 (Vstm5): N101,108A (protein)
parent chain: B1 parent chain
B8: V-set and transmembrane domain-containing protein 5 (Vstm5): tunicamycin (protein)
parent chain: B1 parent chain
B9: V-set and transmembrane domain-containing protein 5 (Vstm5): N108A (protein)
parent chain: B1 parent chain

How the values were obtained:
[1] = western blot of total lysate, COS-7; details: glycan lost; control: WT Vstm5
[2] = immunofluorescence with ER marker PDI, COS-7; details: glycan lost
[3] = surface biotinylation, pull-down, western, COS-7; details: glycan lost; control: WT Vstm5

| Protein | expression_or_secretion [1] | localisation_or_trafficking ([2]; control: WT Vstm5) | localisation_or_trafficking, fold_change [3] | localisation_or_trafficking ([2]; control: DMSO-treated) |
| --- | --- | --- | --- | --- |
| B1 | no change | changes | decreases |  |
| B2 | no change |  | decreases |  |
| B3 | no change |  | decreases |  |
| B4 | no change |  | decreases |  |
| B5 | no change |  | increases |  |
| B6 | no change |  | decreases |  |
| B7 | no change |  | no change |  |
| B8 |  |  |  | changes |
| B9 | no change |  | increases |  |

— publication PMC5528877
